Experimental data reported in article PMC9385563 (Molecules and Cells, 2022).
Changes are numbered by the printed parent chain. Names and notes keep the numbering of the source. Blank lines part the entries; values can stand above or below the molecule they belong to.

Legend:
ABCB6-∆TMD0 [1] = biological target: T1, ABCB6-∆TMD0 (Homo sapiens, UniProt Q9NP58, DEL318-324); test: microscale thermophoresis, initial fluorescence change; assay type: binding
T1 sequence (Q9NP58 with tags, fused parts or gaps DEL318-324): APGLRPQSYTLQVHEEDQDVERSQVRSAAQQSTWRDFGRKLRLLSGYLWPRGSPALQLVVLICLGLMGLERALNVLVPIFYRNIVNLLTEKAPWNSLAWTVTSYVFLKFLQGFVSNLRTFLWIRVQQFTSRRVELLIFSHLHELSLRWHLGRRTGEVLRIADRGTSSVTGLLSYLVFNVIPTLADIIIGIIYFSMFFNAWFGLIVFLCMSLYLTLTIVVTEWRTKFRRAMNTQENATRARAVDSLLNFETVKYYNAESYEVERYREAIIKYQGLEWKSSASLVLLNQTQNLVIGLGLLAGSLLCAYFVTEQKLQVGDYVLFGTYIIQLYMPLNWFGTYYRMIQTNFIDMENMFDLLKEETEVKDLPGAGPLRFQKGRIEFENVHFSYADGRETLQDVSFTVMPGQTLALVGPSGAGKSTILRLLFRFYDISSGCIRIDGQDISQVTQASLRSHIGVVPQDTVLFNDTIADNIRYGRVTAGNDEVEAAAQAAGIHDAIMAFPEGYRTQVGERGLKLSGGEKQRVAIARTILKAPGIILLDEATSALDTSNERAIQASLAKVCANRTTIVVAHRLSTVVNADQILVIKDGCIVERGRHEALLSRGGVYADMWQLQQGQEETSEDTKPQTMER

ABCB6-∆TMD0 [2] = biological target: T2, ABCB6-∆TMD0 (Homo sapiens, UniProt Q9NP58); test: as above; assay type: binding
T2 sequence (Q9NP58 206-842): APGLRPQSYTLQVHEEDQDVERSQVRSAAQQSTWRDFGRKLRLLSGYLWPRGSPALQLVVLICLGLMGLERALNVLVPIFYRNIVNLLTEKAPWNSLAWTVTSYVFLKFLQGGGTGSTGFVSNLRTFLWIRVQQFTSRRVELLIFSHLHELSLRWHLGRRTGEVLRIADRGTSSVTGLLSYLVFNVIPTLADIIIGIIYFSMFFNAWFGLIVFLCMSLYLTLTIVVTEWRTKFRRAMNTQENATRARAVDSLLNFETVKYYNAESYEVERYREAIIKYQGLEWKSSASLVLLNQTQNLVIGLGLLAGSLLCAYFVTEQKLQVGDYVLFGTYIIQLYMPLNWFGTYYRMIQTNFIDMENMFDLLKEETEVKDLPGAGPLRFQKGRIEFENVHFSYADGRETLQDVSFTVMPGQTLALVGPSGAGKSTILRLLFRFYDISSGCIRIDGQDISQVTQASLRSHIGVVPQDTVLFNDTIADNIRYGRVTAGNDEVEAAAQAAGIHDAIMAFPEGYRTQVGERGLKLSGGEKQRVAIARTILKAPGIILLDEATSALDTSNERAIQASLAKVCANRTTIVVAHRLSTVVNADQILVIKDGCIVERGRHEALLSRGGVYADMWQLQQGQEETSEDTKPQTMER

ABCB6-∆TMD0 [3] = biological target: T3, ABCB6-∆TMD0 (Homo sapiens, UniProt Q9NP58, R435A/R439A/R552A); test: as above; assay type: binding
T3 sequence (Q9NP58 206-842 R435A/R439A/R552A): T2 sequence (Q9NP58 206-842) with R230A, R234A, R347A

purified protein [4] = substrate: CC1=C(CCC(=O)O)c2cc3nc(cc4[nH]c(cc5[nH]c(cc1n2)c(C)c5CCC(=O)O)c(CCC(=O)O)c4C)C(CCC(=O)O)=C3C; test: purified protein; settings: Km from stimulation of ATP hydrolysis, 37°C, Cymal-6/CHS
purified protein [5] = substrate: C=CC1=C(C)C2=Cc3c(C=C)c(C)c4[n]3[Fe]([Cl])[n]3c(c(C)c(CCC(=O)O)c3=CC3=NC(=C4)C(C)=C3CCC(=O)O)=CC1=N2; test: purified protein; settings: Km from stimulation of ATP hydrolysis, 37°C
cryo-EM structure = biological target: the molecule itself; test: cryo-EM structure

- Kd (ABCB6-∆TMD0 [1]): 14.1 ± 0.9 µM
- Kd (ABCB6-∆TMD0 [2]): 8.2 ± 0.1 µM
- Kd (ABCB6-∆TMD0 [3]): 17.8 ± 3 µM
Molecule: CC1=C(CCC(=O)O)c2cc3nc(cc4[nH]c(cc5[nH]c(cc1n2)c(C)c5CCC(=O)O)c(CCC(=O)O)c4C)C(CCC(=O)O)=C3C [CPIII]

B1: ABCB6-∆TMD0 (core region of human ABCB6, residues 206-842) (domain or fragment, UniProt Q9NP58 206-842, looked up)
chain: T2 sequence (Q9NP58 206-842)
- Km (purified protein [4]): 19 ± 3.7 µM
- kcat (purified protein [4]): 25 min^–1
- Km (purified protein [5]; with 1 mM GSH, Cymal-6/CHS): 3 ± 0.3 µM
- kcat (purified protein [5]; with 1 mM GSH, Cymal-6/CHS): 36 min^–1
- stoichiometry N (cryo-EM structure): 2

B2: ABCB6-∆TMD0 (Homo sapiens; Y550A) (protein)
chain: T2 sequence (Q9NP58 206-842) with Y345A
- Km (purified protein [5]; with GSH): 10 µM
